For test [1], the target named is fused FliT−FliD^C construct (FliD^C fused to the N terminus of FliT) (Salmonella enterica serovar Typhimurium …, UniProt P16328). Put plainly: ITC. Background: ITC needs no label: the signal is the heat of the interaction.
The target in test [2] is FliT−FliD chaperone–substrate complex (non-fused) (Salmonella enterica serovar Typhimurium …, UniProt P0A1N2 1-122; P16328 1-467). As to the kind of experiment: ITC.
Chain of FliT−FliD chaperone–substrate complex (non-fused) (P0A1N2 whole entry, chain 1 of 2, the tested form may be a part): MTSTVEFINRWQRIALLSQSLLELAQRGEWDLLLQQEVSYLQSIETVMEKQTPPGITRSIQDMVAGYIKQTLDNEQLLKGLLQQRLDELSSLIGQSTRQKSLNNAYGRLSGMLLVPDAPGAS
Chain of FliT−FliD chaperone–substrate complex (non-fused) (P16328 whole entry, chain 2 of 2, the tested form may be a part): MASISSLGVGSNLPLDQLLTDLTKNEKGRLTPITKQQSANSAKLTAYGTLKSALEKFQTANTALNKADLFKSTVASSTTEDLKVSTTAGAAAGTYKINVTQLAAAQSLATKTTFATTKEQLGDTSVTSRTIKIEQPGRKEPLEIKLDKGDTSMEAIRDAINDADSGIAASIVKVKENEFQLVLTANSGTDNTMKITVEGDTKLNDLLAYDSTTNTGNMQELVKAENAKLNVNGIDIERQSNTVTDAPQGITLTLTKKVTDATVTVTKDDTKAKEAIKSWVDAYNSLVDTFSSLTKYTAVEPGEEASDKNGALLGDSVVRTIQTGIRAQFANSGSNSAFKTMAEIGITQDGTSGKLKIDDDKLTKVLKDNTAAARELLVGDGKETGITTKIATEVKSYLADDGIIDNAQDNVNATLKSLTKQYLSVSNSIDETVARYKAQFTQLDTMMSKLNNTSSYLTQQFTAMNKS

B1: cytoplasmic domain of Salmonella enterica serovar Typhimurium FlhA (FlhA^C) (domain or fragment)
chain: SLGMEVGYRLIPMVDFQQDGELLGRIRSIRKKFAQDMGFLPPVVHIRDNMDLQPARYRILMKGVEIGSGDAYPGRWLAINPGTAAGTLPGEKTVDPAFGLDAIWIESALKEQAQIQGFTVVEASTVVATHLNHLIGQFSAELFGRQEAQQLLDRVSQEMPKLTEDLVPGVVTLTTLHKVLQNLLAEKVPIRDMRTILETLAEHAPLQSDPHELTAVVRVALGRAITQQWFPGNEEVQVIGLDTALERLLLQALQGGGGLEPGLADRLLAQTQEALSRQEMLGAPPVLLVNHALRPLLSRFLRRSLPQLVVLSNLELSDNRHIRMTATIGGK
As usually defined, the Kd is the concentration at which binding is half-saturated. Lower therefore signals a tighter complex. B1: the values for the dissociation constant (Kd) in test [1] and in test [2] were approximately 29 µM and approximately 25 µM, respectively.

The record behind these values is article PMC5932034 (2018).
